Legend:
[1] = molecular target: T1, human CD21 on Raji B cells or primary B cells (human, UniProt P20023 21-1033); experiment: flow cytometry, competition with biotinylated human C3d on Raji B cells
T1 construct: whole, on cells; also called cell-surface human CD21; Raji cells
T1 sequence (looked up): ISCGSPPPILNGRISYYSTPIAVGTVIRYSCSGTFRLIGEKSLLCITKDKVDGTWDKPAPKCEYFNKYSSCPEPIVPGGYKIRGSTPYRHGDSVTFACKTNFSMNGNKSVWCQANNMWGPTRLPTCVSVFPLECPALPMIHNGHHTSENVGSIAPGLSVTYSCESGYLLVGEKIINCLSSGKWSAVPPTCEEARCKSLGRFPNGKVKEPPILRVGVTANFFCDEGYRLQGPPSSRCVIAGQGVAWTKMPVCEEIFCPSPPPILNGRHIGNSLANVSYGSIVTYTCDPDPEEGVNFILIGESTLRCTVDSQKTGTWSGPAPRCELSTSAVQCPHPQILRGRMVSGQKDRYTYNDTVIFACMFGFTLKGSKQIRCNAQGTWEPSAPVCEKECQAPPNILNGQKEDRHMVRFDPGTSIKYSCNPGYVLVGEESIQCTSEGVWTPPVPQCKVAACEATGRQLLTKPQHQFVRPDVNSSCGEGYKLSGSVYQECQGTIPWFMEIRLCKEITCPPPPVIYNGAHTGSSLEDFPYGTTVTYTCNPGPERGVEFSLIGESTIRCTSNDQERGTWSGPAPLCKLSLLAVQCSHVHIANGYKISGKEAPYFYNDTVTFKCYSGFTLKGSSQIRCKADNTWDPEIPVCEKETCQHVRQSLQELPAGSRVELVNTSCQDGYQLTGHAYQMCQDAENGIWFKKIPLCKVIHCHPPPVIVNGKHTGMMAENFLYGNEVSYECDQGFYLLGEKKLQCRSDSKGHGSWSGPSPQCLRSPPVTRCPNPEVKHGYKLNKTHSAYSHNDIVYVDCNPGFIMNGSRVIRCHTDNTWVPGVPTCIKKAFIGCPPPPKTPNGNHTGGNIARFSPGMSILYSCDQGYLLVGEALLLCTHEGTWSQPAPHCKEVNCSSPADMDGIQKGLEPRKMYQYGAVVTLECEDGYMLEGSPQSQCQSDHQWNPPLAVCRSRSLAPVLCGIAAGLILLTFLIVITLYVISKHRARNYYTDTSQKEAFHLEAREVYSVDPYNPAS
Procedure: (§1) To measure neutralization of C3d binding to cell-surface CD21 by flow cytometry, human Raji cells and CHO-cyno CD21 cells were used. Cells were dissociated with cell dissociation buffer (Sigma) and blocked on ice with PBS+3% bovine serum albumin (BSA)+human Fc blocker. In a 96-well plate, […] were incubated for 0.5 hr on ice with 3-fold serially diluted Ab15 (starting from 100 nM), then with 4.5 ug/ml biotinylated human C3d. SA-BV451 conjugate (BD Bioscience, cat. #563529) was then added at 0.5 ug/ml for 1 hr on ice. Cells were washed again with cold PBS, resuspended in PBS and analyzed for human C3d binding on a BD Fortessa™.

cyno CD21 on CHO cells [2] = molecular target: T2, cyno CD21 on CHO cells (cynomolgus monkey, UniProt A0A2K5URG6 21-1034); experiment: flow cytometry, competition with biotinylated human C3d on CHO-cynoCD21 cells
T2 construct: whole, on cells; also called CHO-cyno CD21 cells; CHO-cynoCD21
T2 sequence: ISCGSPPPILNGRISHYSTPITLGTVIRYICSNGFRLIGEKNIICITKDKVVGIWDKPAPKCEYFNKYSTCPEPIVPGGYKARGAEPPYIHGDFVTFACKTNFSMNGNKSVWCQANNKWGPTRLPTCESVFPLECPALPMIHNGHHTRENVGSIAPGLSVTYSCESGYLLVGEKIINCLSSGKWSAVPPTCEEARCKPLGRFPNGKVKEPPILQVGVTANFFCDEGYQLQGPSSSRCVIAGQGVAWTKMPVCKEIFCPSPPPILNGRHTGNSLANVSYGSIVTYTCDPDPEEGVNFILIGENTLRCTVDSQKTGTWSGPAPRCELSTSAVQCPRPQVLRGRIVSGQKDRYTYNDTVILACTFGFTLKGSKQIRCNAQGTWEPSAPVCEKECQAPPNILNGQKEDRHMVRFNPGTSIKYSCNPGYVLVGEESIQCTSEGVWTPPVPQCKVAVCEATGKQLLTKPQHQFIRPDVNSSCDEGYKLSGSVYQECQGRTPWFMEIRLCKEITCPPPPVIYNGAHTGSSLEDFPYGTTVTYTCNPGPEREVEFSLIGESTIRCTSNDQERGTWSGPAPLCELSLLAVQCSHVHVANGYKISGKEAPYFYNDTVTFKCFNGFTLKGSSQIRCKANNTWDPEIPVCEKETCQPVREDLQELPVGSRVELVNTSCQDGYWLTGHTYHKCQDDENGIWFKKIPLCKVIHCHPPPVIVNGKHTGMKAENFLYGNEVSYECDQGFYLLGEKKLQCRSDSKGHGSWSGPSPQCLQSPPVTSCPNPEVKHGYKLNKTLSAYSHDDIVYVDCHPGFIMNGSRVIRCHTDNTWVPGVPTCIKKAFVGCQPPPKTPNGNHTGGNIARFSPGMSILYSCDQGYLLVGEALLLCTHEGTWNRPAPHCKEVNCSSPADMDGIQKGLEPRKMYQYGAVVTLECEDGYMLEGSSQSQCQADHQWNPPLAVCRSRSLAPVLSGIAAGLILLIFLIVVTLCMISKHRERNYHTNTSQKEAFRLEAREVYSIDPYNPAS
Procedure: as §1

[3] = molecular target: T1, human CD21 on Raji B cells or primary B …; experiment: Raji B cell binding, flow cytometry
Procedure: (§2) Ab15 binding to cell-surface human and cyno CD21 was determined using human Raji B cells (ATCC, Manassas, VA) and CHO cells over expressing cyno CD21. Cells expressing cyno CD21 were generated by transfecting CHO cells with a mammalian expression construct encoding full-length cyno CD21. Stable cell clones were selected on hygromycin-B, and their expression of cyno CD21 confirmed by flow cytometry.
(§3) For the Ab15 binding experiment, cells were dissociated with cell dissociation buffer (Sigma) and blocked on ice with PBS+3% bovine serum (BS)+human Fc blocker. Cells were stained on ice for 1 hr with 3-fold serially diluted Ab15 (starting from 50 nM), then washed with cold PBS. Secondary antibody (anti-human IgG-PE, 1:500 dilution, Invitrogen, cat. #H10104) was added on ice for 1 hr. Cells were washed with and resuspended in PBS, and analyzed for Ab15 binding on a BD Fortessa instrument.

cyno CD21 on CHO cells [4] = molecular target: T2, cyno CD21 on CHO cells; experiment: flow cytometry, Ab15 titrated on CHO cells overexpressing cyno CD21, anti-human IgG-PE, Geo MFI
Procedure: as §2, §3

B1: Ab15 (antibody, human IgG1, kappa, V domains shown)
VH: QVQLVQSGAEVKKPGSSVKVSCKASGGTFSSYAISWVRQAPGQGLEWMGRIIPILGIANYAQKFQGRVTITADKSTSTAYMELSSLRSEDTAVYYCAREDDSSGYYQDWGQGTLVTVSS
VL: EIVMTQSPATLSLSPGESATLSCRAGQSINSHLAWYQQKPGQSPSLLIYDASTRATGVPARFSGSGFGTEFTLTISSLQSEDFAVYFCQQYEYWYTFGQGTKLEIKR
notes: Tb-labeled in the HTRF assay; also called 36C01; SC38-36C01 (IgG1 version)
IC50 [1]: 1.17 nM | IC50 (cyno CD21 on CHO cells [2]): 0.24 nM | EC50 [3]: 1.38 nM | EC50 (cyno CD21 on CHO cells [4]): 0.05 nM

Source: US20240376225A1 (CHILDREN S MEDICAL CENTER, published 2024)
